Measured values from patent publication US9688764B2, “Methods of treating breast cancer by administering anti-human prolactin receptor (PRLR) antibodies” (REGENERON PHARMACEUTICALS, INC., priority 2013, dated 2017).
Read-outs that look alike come from different tables or passages of the source.

Experiments:
PC3/PRLR tumors = assay: Tumor growth inhibition in xenograft-bearing mice; format: in vivo, SCID mice; settings: for Average Tumor Growth Inhibition (%): SCID mice; for effect on PC3/PRLR tumor growth: multi-dose, especially at 15 mg/kg
Excerpt: (§1) Briefly, 20×10^6 MCF7/PRLR cells (ATCC HTB-22 transfected with full length hPRLR as previously described) were implanted subcutaneously into the left mammary fat pad of female NCr nude mice. In other studies, 10×10^6 PC3/PRLR (ATCC CRL-1435 transfected with full length hPRLR as previously described) were implanted subcutaneously into the left flank of male SCID mice. Additionally, 10×10^6 parental T47D (ATCC HTB-133) or […] T47D#11 cells (ATCC HTB-133 serially passaged in vivo as described below) were subcutaneously implanted into the left flank of female CB17 SCID mice. All mice were obtained from Taconic (Hudson, N.Y.). Each bolus of cells was supplemented with a 90-day estrogen release pellet (1.7 mg/pellet; Innovative Research America, Sarasota Fla.). Once tumors had reached an average volume of 250 mm^3, mice were randomized into groups of seven and dosed with anti-PRLR antibody-drug conjugates of the invention or control reagents. Control reagents included PBS vehicle, free methyl-disulfide DM1 (DM1-SMe) and isotype Control 1-DM1.
(§2) In multi-dose studies, mice were dosed once a week for a total of three weeks with tumor volumes and body weights being monitored twice weekly throughout the study. Test ADCs were dosed at 5 and/or 15 mg/kg in the multi-dose studies. In single-dose studies, mice received a single dose of test ADC, and tumor volumes and body weights were monitored twice weekly throughout the study. Test ADCs were dosed at 1, 2.5, 5, and 15 mg/kg in the single-dose studies. Average tumor size as well as tumor growth inhibition relative to the vehicle treated group were calculated for each group. Tumors were measured with calipers twice a week until the average size of the vehicle group reached 1000 mm^3. Tumor size was calculated using the formula (length×width^2)/2. Tumor growth inhibition was calculated according to the following formula: (1−((Tfinal−Tinitial)/(Cfinal−Cinitial)))*100, where T (treated group) and C (control group) represent the mean tumor mass on the day the vehicle group reached 1000 mm^3. […] Results are summarized in Tables 21-25 (multi-dose) and Table 26 (single dose). (NT=not tested in the particular experiment shown).

HEK293 (293) cells = assay: Cell viability (cell kill) assay; format: cell-based
In short: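 Anti-PRLR–DM1 ADCs (non-cleavable SMCC linker) or free DM1-SMe, 500 nM to 5 pM for 3 days on parental or hPRLR-overexpressing lines. HEK293: CCK8 OD450; MCF7: Hoechst nuclear counts by imaging.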

[1] = test system: HEK293/hPRLR (293/hPRLR) cells; assay: Cell viability (cell kill) assay; format: cell-based, human; settings: 3 days
Excerpt: PRLR-overexpressing cells, including HEK293, PC3, MCF7 and NCI-N87, were generated to assess the ability of anti-PRLR conjugated antibodies to reduce cell viability. For comparative purposes, PC3 and T47D cells with overexpressed ErbB2 were also generated, as well as an MCF7 cell line over-expressing both hPRLR and hErbB2. Briefly, Lipofectamine® 2000-mediated transfection methodology was utilized to generate HEK293 cells expressing human PRLR (HEK293/hPRLR) or human ErbB2 (HEK293/hErbB2). Lipofectamine LTX with Plus Reagent was used to generate PC3 cells expressing human PRLR (PC3/hPRLR) or human ErbB2 (PC3/hErbB2). Lentiviral-mediated transduction was utilized to generate MCF7 cells expressing human PRLR (MCF7/hPRLR), NCI-N87 cells expressing human PRLR (NCI-N87/hPRLR), T47D cells over-expressing human ErbB2 (T47D/hErbB2), and MCF7 cells expressing both human PRLR and human ErbB2 (MCF7/hPRLR/hErbB2). All lines were selected for at least two weeks in complete growth media plus appropriate selection reagents. Stably expressing populations were enriched for PRLR expression via FACS using the anti PRLR antibody Control I.
Next, the ability of anti-PRLR-DM1 antibody-drug conjugates (i.e., anti-PRLR antibodies conjugated to DM1 via a non-cleavable linker [SMCC]) to reduce cell viability was determined using in vitro cell based assays. Cells were seeded in PDL-coated 96 well plates at 1500 to 10000 cells per well in complete growth media and allowed to grow overnight. For cell viability curves, ADCs or free DM1 (as the methyl disulfide derivative DM1-SMe) were added to the cells at final concentrations ranging from 500 nM to 5 pM and incubated for 3 days. The 293, PC3 and T47D cells were incubated with CCK8 (Dojindo, Rockville, Md.) for the final 1-3 hours and the absorbance at 450 nm (OD450) was determined on a Flexstation3 (Molecular Devices, Sunnyvale, Calif.). MCF7 cells were treated with Hoechst 33342 nuclear stain while being fixed with 4% formaldehyde. Images were acquired on the ImageXpress micro XL (Molecular Devices, Sunnyvale, Calif.) and nuclear counts were determined via Columbus image analysis software (Perkin Elmer, Shelton, Conn.). Background OD450 values (PC3, 293, and T47D) or nuclear counts (MCF7) from digitonin (40 nM) treated cells was subtracted from all wells and viability was expressed as a percentage of the untreated controls. IC50 values were determined from a four-parameter logistic equation over a 10-point response curve (GraphPad Prism).

PC3/hPRLR cells = assay: Cell viability (cell kill) assay; format: cell-based, human
In short: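 PC3 and PC3/hPRLR (lipofection-generated, FACS-enriched for PRLR) cells exposed 3 days to anti-PRLR ADCs or free DM1-SMe, 500 nM to 5 pM. Viability by CCK8 OD450, digitonin background subtracted, as % of untreated; IC50 from four-parameter fit of 10-point curves.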

MCF7 (MCF7/ATCC) cells = assay: Cell viability (cell kill) assay, nuclear counts; format: cell-based
In short: (§3)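 Anti-PRLR ADCs or free DM1-SMe were added at 500 nM to 5 pM final to cells seeded overnight and were incubated 3 days. MCF7 lines were fixed with 4% formaldehyde plus Hoechst 33342, and nuclei were counted by imaging, with digitonin […] background subtracted. Viability was expressed as % of untreated cells, and IC50 was obtained from a 4-parameter fit of a 10-point curve.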

[2] = test system: MCF7/hPRLR (MCF7/PRLR) cells; assay: Cell viability (cell kill) assay, nuclear counts; format: cell-based, human
In short: as §3

MCF7/PRLR tumors = assay: Tumor growth inhibition in xenograft-bearing mice; format: in vivo, NCr nude mice; settings: for effect on MCF7/PRLR tumor growth: multi-dose trial 1, 5 and 15 mg/kg
Excerpt: as §1, §2

[3] = 293/PRLR, Table 11, read-out: IC50

B1: H1H6765P: anti-PRLR antibody, human IgG1 Fc; HCVR/LCVR SEQ ID NOs 18/26 (antibody, V domains shown)
VH: EVQLVESGGGVVRPGGSLRLSCVGSGFSFDDHGMNWVRQGPGKGLEWVSGFNWNGGSTNYAESVKGRFTISRDNARNSLFLQMNSLRAEDTALYYCVRGRSGWFNDAFDVWGPGTMVTVSS
VL: EIVLTQSPGTLSLSPGERATLSCRASQTINSNYLAWYRQKPGQTPRLLIYGTSSRATGIPDRFSGSGSGTDFSLTISRLEPEDFAVFYCQQYAGLPTFGPGTKVDIK
modifications: human IgG1 Fc
PC3/PRLR tumors; PC3/PRLR tumors TRIAL #2, multi-dose 15 mg/kg, Day 55
  Average Tumor Growth Inhibition (%): 1%

B2: H1H6953N-DM1 (conjugate)
VH: EVQLLESGGGLVQPGGTLRLSCAASGFTFSAYAMSWVRQAPGKGLEWVSSINVRAGDTYYADSVKGRFTISRDNSKNTLFLLMNSLRAEDTAAYYCAKARYSSNWGFDFWGQGTLVTVSS
VL: DIVMTQSPDSLTVSLGARTTINCQSSQTILHSSNNHNYLAWYQQKPGLPPKLLIYWSSTRESGVPDRFSGSGSGTDFTLTISSLQAEDVAIYYCQQYSNTPYTFGQGTKLEIN
HEK293 (293) cells; 293, Table 11, 3 days
  IC50: 100 nM
HEK293 (293) cells; 293, Table 14
  IC50: 100 nM
[1]; 293/PRLR, Table 11
  % Kill: 95%
[1]; [3]
  IC50: 0.28 nM
[1]; 293/hPRLR cells (PRLR 18× above background), read-out: IC50, cell viability
  IC50: 0.43 nM
PC3/hPRLR cells; PC3/PRLR, Table 11, 3 days
  % Kill: 67%
  IC50: 0.86 nM
PC3/hPRLR cells; PC3/PRLR, Table 15
  % Kill: 76%
  IC50: 0.68 nM
MCF7 (MCF7/ATCC) cells; MCF7, Table 12, 3 days
  % Kill: 55%
  IC50: 100 nM
MCF7 (MCF7/ATCC) cells; MCF7, Table 16
  IC50: 82 nM
[2]; Table 12, 3 days
  % Kill: 76%
  IC50: 0.29 nM
[2]; Table 17
  % Kill: 76%
  IC50: 0.33 nM
MCF7/PRLR tumors
  effect on MCF7/PRLR tumor growth: potently inhibited MCF7/PRLR tumor growth
PC3/PRLR tumors
  effect on PC3/PRLR tumor growth: demonstrated inhibition of tumor growth

B3: H1H6953N: human IgG1 Fc form of H1M6953N; anti-PRLR; HCVR/LCVR SEQ ID NOs 274/282 (antibody, V domains shown)
VH: EVQLLESGGGLVQPGGTLRLSCAASGFTFSAYAMSWVRQAPGKGLEWVSSINVRAGDTYYADSVKGRFTISRDNSKNTLFLLMNSLRAEDTAAYYCAKARYSSNWGFDFWGQGTLVTVSS
VL: DIVMTQSPDSLTVSLGARTTINCQSSQTILHSSNNHNYLAWYQQKPGLPPKLLIYWSSTRESGVPDRFSGSGSGTDFTLTISSLQAEDVAIYYCQQYSNTPYTFGQGTKLEIN
modifications: human IgG1 Fc
MCF7/PRLR tumors; MCF7/PRLR tumors TRIAL #1, multi-dose 15 mg/kg, NCr Nude mice, Day 52
  Average Tumor Growth Inhibition (%): 79%

B4: H1H6958N2-DM1: anti-PRLR antibody H1H6958N2 conjugated to DM1 through an SMCC linker (conjugate)
VH: QVQLVESGGGVVQPGRSLRLSCGASGFTFRNYGMQWVRQGPGKGLEWVTLISFDGNDKYYADSVKGRFTISRDNSKNTLFLQMNSLRTEDTAVYYCARGGDFDYWGQGTLVTVSS
VL: DIQMTQSPSSLSASVGDRVTITCRASQDIRKDLGWYQQKPGKAPKRLIYAASSLHSGVPSRFSGSGSGTEFTLTISSLQPEDFATYYCLQHNSYPMYTFGQGTKLEIK
HEK293 (293) cells; 293, Table 19
  % Kill: 90%
  IC50: 100 nM
HEK293 (293) cells; HEK293, Table 13, without PRL
  % Kill: 88%
  IC50: 90 nM
[1]; 293/PRLR, Table 11
  % Kill: 95%
[1]; [3]
  IC50: 0.1 nM
PC3/hPRLR cells; PC3/PRLR, Table 11, 3 days
  % Kill: 83%
  IC50: 0.43 nM
PC3/hPRLR cells; PC3/hPRLR, Table 18
  % Kill: 79%
  IC50: 0.5 nM
MCF7 (MCF7/ATCC) cells; MCF7/ATCC, Table 18
  % Kill: 72%
  IC50: 90 nM
MCF7 (MCF7/ATCC) cells; MCF7/ATCC, Table 20
  % Kill: 70%
  IC50: 70 nM
MCF7 (MCF7/ATCC) cells; MCF7, Table 12, 3 days
  % Kill: 77%
  IC50: 100 nM
[2]; Table 12, 3 days
  % Kill: 77%
  IC50: 0.19 nM
[2]; Table 18
  % Kill: 83%
  IC50: 0.2 nM
[2]; Table 20
  % Kill: 80%
  IC50: 0.2 nM
MCF7/PRLR tumors
  effect on MCF7/PRLR tumor growth: potently inhibited MCF7/PRLR tumor growth
MCF7/PRLR tumors; single dose, 1 mg/kg
  effect on tumor volume relative to vehicle control tumors: significant decrease in tumor volume
MCF7/PRLR tumors; single dose, all doses above 1 mg/kg tested (2.5, 5, 15 mg/kg)
  tumor growth inhibition: > 100%
PC3/PRLR tumors; PC3/PRLR tumors TRIAL #1, multi-dose 5 mg/kg, Day 63
  Average Tumor Growth Inhibition (%): 5%
PC3/PRLR tumors
  effect on PC3/PRLR tumor growth: demonstrated inhibition of tumor growth

B5: H1H6958N2: human IgG1 Fc form of H2M6958N2; anti-PRLR, receptor blocking; HCVR/LCVR SEQ ID NOs 290/298 (antibody, V domains shown)
VH: QVQLVESGGGVVQPGRSLRLSCGASGFTFRNYGMQWVRQGPGKGLEWVTLISFDGNDKYYADSVKGRFTISRDNSKNTLFLQMNSLRTEDTAVYYCARGGDFDYWGQGTLVTVSS
VL: DIQMTQSPSSLSASVGDRVTITCRASQDIRKDLGWYQQKPGKAPKRLIYAASSLHSGVPSRFSGSGSGTEFTLTISSLQPEDFATYYCLQHNSYPMYTFGQGTKLEIK
modifications: human IgG1 Fc
MCF7/PRLR tumors; MCF7/PRLR tumors, single dose 15 mg/kg, Day 55
  Average Tumor Growth Inhibition (%): 1%
